How the values were obtained:
rFVIII [1] = target: T1, rFVIII (Homo sapiens, UniProt P00451); assay: column format binding assay, rFVIII mass per fraction by sandwich capture ELISA for the light chain; details: for Flow through ng: 10,000 ng rFVIII in 1:10 PPF injected, 5° C.; for ELISA results % total: Table 9, 0.5M CaCl2 fraction
Procedure: (§1) Immunoassay on rFVIII using a sandwich capture ELISA for the light chain and activity assay using a chromogenic substrate (COATEST Factor VIII kit from diaPharma, Franklin, Ohio) were performed on a BIOMEK® automated liquid handling system from Beckman Instruments (Brea, Calif.). The monoclonal antibody for rFVIII light chain (known as C7F7), the ELISA assay standard (lot A70K019), and the control for the activity assay (lot A70A001 @ 140 IU/mL) were from the Bayer Corporation (Berkeley, Calif.). The standard for the activity assay was at 11.2 IU/mL (Bayer, Clayton, N.C.), calibrated against the MEGA 1 standard, which is a working standard used by American manufacturers for measuring factor VIII activity (21).
(§2) Additional confirmatory binding assay and performance of the discovered binding peptides in terms of total rFVIII and activity recovery was performed in a column chromatographic format on a microbore HPLC. The resins were packed into 0.4×5 cm columns (Thomson, Springfield, Va.) and tested on the MICHROM HPLC system (Michrom BioResources, Auburn, Calif.). The elution program for the trials utilized the following method. The column was pre-equilibrated with equilibration buffer (as above). A 1 mL aliquot of 1:10 PPF followed by 1 mL of rFVIII (10,000 ng) in 1:10 PPF were injected and allowed sufficient time to flow through the column using equilibration buffer. The column was then washed with step elutions of 0.5 M and 1.0 M CaCl2 in equilibration buffer. The column was exposed to equilibration buffer. Remaining protein was eluted with 2% by volume glacial acetic acid in water. Columns were kept at 5° C. during the chromatographic runs. For each 1 mL injection (equilibration buffer, 1:10 PPF and 10,000 ng rFVIII in 1:10 PPF), the chromatographic cycle was run for 45 minutes (injection, flow through, 0.5 M CaCl2, 1.0 M CaCl2, equilibration buffer, 2% acetic acid, equilibration buffer).
(§3) A Gilson FC204 fraction collector at the HPLC outlet collected individual eluates for further analysis. Each collection tube had 100 μL hSA added to it to stabilize the rFVIII. Fractions collected from the 2% acetic acid eluates were neutralized with 2 M Tris, pH 10.5 to bring the pH to neutrality. The fractions were analyzed for total protein by the integration of the absorbance at 280 nm, for rFVIII by immunoassay (sandwich capture ELISA), and for rFVIII activity by a chromogenic substrate assay.
Tables 5 and 6 present the results from the additional confirmatory binding assays using the column format. The chromatography method was run by injecting the samples at a flow rate of 865 μL/min (413 cm/hr). In order to provide a 10 minute residence time of sample in the column the flow was decreased to 17 μL/min (10 cm/hr) upon injection.
Following the incubation, the flow was set at 865 μL/min (413 cm/hr) for the step clutions of 0.5 M CaCl2, 1.0 M CaCl2, and 2% acetic acid. Results are expressed in terms of the total mass of rFVIII in each fraction, as determined by the sandwich capture ELISA assay for the rFVIII light chain. […] A control using a non-binding peptide sequence (IGF) is also shown for comparison--in this case, 95% of the rFVIII loaded to the column was collected in the flow through fraction. Additional controls with no

rFVIII [2] = target: T1, rFVIII; assay: confirmatory binding assay in filtration plate format using 14C-rFVIII; details: for 0.5M CaCl2 % total / 2% acetic acid % total / 2% acetic acid dpm / 0.5M CaCl2 dpm: 5 mg beads; for 0.5M CaCl2 dpm: 5° C.; for beads % total / beads dpm: remaining on beads after washes
Procedure: Confirmatory binding assays were performed in a filtration plate format using individual peptide sequences synthesized directly onto the TOYOPEARL AF amino 650 M resin, at a final substitution density of 0.1 mmole/g resin. A slurry of each individual peptide sequence was prepared using deionized water. A 100 μL volume of beads (corresponding to 5 mg) was loaded into each well of the filtration plate (MULTISCREEN Assay System, Millipore, Bedford, Mass.), in triplicate for each peptide sequence. Beads were washed with 20% ethanol and incubated overnight with equilibration buffer (20 mM imidazole, 10 mM
CaCl2, 0.105 M NaCl, pH 6.9). A 100 μL aliquot of ^14 C-rFVIII diluted in neat PPF to a final concentration of 20-30 nM was loaded into each well and incubated for 1 hour at 5° C. Filtrate (unbound ^14 C-rFVIII) was collected into a microtiter plate and transferred to liquid scintillation vials for dpm counting. Beads were washed sequentially with: 100 μL of equilibration buffer for 15 minutes, 200 μL of 0.5 M CaCl2 (in equilibration buffer), 200 μL of 1.0 M CaCl2 (in equilibration buffer), and 200 uL of 2% by volume glacial acetic acid in water, for 1 hour each at 5° C. Scintillation counting on the unbound ^14 C-rFVIII (plus equilibration buffer wash), salt and acid washes, as well as on the beads was then performed and the overall mass balance calculated.
Beads presenting the appropriate peptide sequence on the surface were placed in the filtration plate wells and incubated sequentially with equilibration buffer, ^14 C-rFVIII in PPF, equilibration buffer, 0.5 M CaCl2 wash, 1.0 M CaCl2 wash and 2% acetic acid wash. After each incubation, filtrate was collected in microtiter plates, and dpm counted on each
In Table 3, the ^14 C-rFVIII was loaded at 20 nM (in PPF) and the radiolabeling yield was at 3.0×10^15 dpm/mole. In Table 4, the ^14 C-rFVIII was loaded at 30 nM (in PPF) and the radiolabeling yield was at 5.0×10^15 dpm/mole.

rFVIII [3] = target: T1, rFVIII; assay: rFVIII activity recovery from peptide columns by chromogenic substrate assay (COATEST); format: biochemical; details: for 0.5M CaCl2 % total: activity recovery; for Flow through IU: rFVIII activity in fraction; for Activity results % total: Table 9, 0.5M CaCl2 fraction
Procedure: as §1, §2, §3
Tables 7 and 8 list the sequences for which activity recovery was determined by a chromogenic substrate assay (COASTEST kit, diaPharma, Franklin, Ohio). Chromatographc conditions are the same as described above for the results from Tables 5 and 6. It can be

[4] = Table 3, 14C-rFVIII 20 nM in PPF
[5] = Table 3, 14C-rFVIII 20 nM in PPF, 3.0 × 10^15 DPM/mole
[6] = Table 4, 14C-rFVIII 30 nM in PPF
[7] = Table 4, 14C-rFVIII 30 nM in PPF, 5.0 × 10^15 dpm/mole

T1 sequence (P00451 20-2351): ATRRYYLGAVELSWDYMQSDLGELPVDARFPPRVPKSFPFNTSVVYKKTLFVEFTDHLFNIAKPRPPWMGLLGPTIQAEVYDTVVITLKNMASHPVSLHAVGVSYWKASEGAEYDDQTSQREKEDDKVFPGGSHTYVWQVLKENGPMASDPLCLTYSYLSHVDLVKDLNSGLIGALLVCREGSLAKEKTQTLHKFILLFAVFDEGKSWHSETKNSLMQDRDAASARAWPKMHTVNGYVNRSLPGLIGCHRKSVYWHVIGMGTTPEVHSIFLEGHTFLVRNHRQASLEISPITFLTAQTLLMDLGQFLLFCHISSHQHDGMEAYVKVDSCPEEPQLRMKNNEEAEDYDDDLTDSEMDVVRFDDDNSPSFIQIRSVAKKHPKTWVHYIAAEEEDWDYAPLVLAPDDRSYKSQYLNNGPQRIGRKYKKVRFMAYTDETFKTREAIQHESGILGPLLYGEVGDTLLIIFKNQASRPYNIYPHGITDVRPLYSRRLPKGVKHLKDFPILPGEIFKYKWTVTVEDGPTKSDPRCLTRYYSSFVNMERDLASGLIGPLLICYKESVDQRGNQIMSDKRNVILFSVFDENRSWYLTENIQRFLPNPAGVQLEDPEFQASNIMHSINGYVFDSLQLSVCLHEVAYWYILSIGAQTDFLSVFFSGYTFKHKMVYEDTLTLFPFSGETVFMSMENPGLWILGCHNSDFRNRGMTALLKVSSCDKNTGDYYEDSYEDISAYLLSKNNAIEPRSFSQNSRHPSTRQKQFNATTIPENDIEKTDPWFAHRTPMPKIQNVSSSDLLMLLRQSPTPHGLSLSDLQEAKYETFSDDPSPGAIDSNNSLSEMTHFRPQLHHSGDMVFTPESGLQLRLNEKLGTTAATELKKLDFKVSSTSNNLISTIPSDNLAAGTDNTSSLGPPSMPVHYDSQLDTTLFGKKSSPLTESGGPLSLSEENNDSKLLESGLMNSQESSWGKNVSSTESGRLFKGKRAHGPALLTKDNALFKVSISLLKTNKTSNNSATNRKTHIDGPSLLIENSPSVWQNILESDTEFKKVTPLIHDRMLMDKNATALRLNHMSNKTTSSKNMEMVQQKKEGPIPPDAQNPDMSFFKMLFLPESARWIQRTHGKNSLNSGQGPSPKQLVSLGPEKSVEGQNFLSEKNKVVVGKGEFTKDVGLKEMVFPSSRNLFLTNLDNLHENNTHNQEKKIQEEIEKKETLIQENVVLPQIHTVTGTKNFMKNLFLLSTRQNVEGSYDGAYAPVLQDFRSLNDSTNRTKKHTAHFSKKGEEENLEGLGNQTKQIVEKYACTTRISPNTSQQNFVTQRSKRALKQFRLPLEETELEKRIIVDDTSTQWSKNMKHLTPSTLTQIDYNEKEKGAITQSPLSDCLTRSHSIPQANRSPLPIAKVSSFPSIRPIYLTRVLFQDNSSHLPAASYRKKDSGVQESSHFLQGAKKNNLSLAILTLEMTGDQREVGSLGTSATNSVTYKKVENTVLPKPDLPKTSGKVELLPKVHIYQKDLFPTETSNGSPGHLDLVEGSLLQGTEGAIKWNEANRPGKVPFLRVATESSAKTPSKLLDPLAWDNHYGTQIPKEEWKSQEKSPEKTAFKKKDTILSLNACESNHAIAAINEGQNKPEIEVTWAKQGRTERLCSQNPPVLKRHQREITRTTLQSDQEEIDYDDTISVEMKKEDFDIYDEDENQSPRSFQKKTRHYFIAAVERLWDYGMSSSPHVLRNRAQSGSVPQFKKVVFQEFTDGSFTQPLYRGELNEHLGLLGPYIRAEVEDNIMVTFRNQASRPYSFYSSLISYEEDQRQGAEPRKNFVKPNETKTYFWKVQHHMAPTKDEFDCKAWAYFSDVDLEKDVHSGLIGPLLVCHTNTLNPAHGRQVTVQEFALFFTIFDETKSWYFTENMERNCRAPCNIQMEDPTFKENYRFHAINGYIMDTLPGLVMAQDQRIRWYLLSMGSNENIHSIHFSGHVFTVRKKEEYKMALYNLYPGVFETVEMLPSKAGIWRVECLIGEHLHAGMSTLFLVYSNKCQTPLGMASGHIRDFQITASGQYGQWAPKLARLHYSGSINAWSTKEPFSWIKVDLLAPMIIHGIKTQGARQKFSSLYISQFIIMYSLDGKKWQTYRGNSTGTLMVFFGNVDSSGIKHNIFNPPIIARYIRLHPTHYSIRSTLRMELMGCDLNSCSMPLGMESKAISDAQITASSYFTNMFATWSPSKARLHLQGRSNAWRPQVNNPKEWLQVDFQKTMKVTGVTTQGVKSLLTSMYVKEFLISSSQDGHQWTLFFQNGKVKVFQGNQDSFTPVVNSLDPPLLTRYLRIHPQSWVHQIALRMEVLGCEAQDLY
T1 sequence (P00451 1668-2351 limits assumed): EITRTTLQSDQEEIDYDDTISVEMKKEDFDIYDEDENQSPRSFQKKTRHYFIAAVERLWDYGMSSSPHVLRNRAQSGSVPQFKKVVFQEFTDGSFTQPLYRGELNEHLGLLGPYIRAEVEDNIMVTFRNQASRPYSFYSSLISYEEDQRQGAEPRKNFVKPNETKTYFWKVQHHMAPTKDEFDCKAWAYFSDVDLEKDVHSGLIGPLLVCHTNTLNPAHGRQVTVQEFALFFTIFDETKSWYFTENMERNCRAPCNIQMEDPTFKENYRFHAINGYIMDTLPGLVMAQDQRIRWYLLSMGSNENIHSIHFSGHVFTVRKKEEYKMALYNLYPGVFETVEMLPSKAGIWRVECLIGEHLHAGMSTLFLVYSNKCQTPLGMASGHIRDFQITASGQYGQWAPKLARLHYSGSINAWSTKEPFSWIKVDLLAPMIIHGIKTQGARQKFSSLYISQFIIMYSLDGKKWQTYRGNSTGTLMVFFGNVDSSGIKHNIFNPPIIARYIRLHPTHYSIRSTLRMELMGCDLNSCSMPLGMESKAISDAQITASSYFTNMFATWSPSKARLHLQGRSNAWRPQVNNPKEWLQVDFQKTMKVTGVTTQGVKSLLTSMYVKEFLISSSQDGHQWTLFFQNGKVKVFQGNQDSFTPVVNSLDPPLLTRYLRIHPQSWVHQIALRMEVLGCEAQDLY

With 7 (IRFYSE) [compound 7] the “0.5M CaCl2 ng” value (rFVIII [1]; Table 5) was 5836 ng, the “0.5M CaCl2 % total” value (rFVIII [1]; Table 5) was 94% and the “2% acetic acid % total” value (rFVIII [1]; Table 5) was 1%. For the same substance, the “2% acetic acid ng” value (rFVIII [1]; Table 5) was 77 ng, the “Flow through % total” value (rFVIII [1]; Table 5) was 4% and the Total ng (rFVIII [1]; Table 5) was 6225 ng. The Flow through ng (rFVIII [1]; Table 5) was 228 ng, the “ELISA results % total” value (rFVIII [1]) was 94% and the Total dpm (rFVIII [2]; Table 3, 14C-rFVIII 20 nM) was 3764 dpm. For the same substance, the “0.5M CaCl2 % total” value (rFVIII [2]; [4]) was 85%, the “2% acetic acid % total” value (rFVIII [2]; [4]) was 11% and the “2% acetic acid dpm” value (rFVIII [2]; [4]) was 415 dpm. The “0.5M CaCl2 dpm” value (rFVIII [2]; [5]) was 3184 dpm, the beads % total (rFVIII [2]; Table 3, 14C-rFVIII 20 nM) was 4% and the beads dpm (rFVIII [2]; Table 3, 14C-rFVIII 20 nM) was 165 dpm. The “0.5M CaCl2 IU” value (rFVIII [3]; Table 7) was 40.6 IU, the “2% acetic acid % total” value (rFVIII [3]; Table 7) was 1% and the “2% acetic acid IU” value (rFVIII [3]; Table 7) was 0.4 IU. For the same substance, the “Flow through % total” value (rFVIII [3]; Table 7) was 0%, the “Total IU” value (rFVIII [3]; Table 7) was 42.5 IU and the “0.5M CaCl2 % total” value (rFVIII [3]; Table 7) was 96%. For the same substance, the “Flow through IU” value (rFVIII [3]; Table 7) was 0.0 IU and the “Activity results % total” value (rFVIII [3]) was 96%.
For 20 (WHHHRG) [compound 20], the “0.5M CaCl2 ng” value (rFVIII [1]; Table 6) was 36 ng, the “0.5M CaCl2 % total” value (rFVIII [1]; Table 6) was 1% and the “2% acetic acid % total” value (rFVIII [1]; Table 6) was 95%. For the same substance, the “2% acetic acid ng” value (rFVIII [1]; Table 6) was 4719 ng, the “Flow through % total” value (rFVIII [1]; Table 6) was 0% and the Total ng (rFVIII [1]; Table 6) was 4966 ng. The Flow through ng (rFVIII [1]; Table 6) was 0 ng, the Total dpm (rFVIII [2]; Table 4, 14C-rFVIII 30 nM) was 3884 dpm and the “0.5M CaCl2 % total” value (rFVIII [2]; [6]) was 12%. For the same substance, the “2% acetic acid % total” value (rFVIII [2]; [6]) was 54%, the “2% acetic acid dpm” value (rFVIII [2]; [6]) was 2099 dpm and the “0.5M CaCl2 dpm” value (rFVIII [2]; [7]) was 485 dpm. The beads % total (rFVIII [2]; Table 4, 14C-rFVIII 30 nM) was 33%, the beads dpm (rFVIII [2]; Table 4, 14C-rFVIII 30 nM) was 1300 dpm and the “0.5M CaCl2 IU” value (rFVIII [3]; Table 8) was 0.4 IU. The “2% acetic acid % total” value (rFVIII [3]; Table 8) was 45%, the “2% acetic acid IU” value (rFVIII [3]; Table 8) was 3.5 IU and the “Flow through % total” value (rFVIII [3]; Table 8) was 0%. The “Total IU” value (rFVIII [3]; Table 8) was 7.8 IU, the “0.5M CaCl2 % total” value (rFVIII [3]; Table 8) was 4% and the “Flow through IU” value (rFVIII [3]; Table 8) was 0.0 IU.
With 11 (NAIFQW) [compound 11] the “0.5M CaCl2 ng” value (rFVIII [1]; Table 6) was 7481 ng, the “0.5M CaCl2 % total” value (rFVIII [1]; Table 6) was 78% and the “2% acetic acid % total” value (rFVIII [1]; Table 6) was 11%. For the same substance, the “2% acetic acid ng” value (rFVIII [1]; Table 6) was 1069 ng, the “Flow through % total” value (rFVIII [1]; Table 6) was 7% and the Total ng (rFVIII [1]; Table 6) was 9641 ng. For the same substance, the Flow through ng (rFVIII [1]; Table 6) was 639 ng, the “ELISA results % total” value (rFVIII [1]) was 78% and the Total dpm (rFVIII [2]; Table 4, 14C-rFVIII 30 nM) was 2208 dpm. For the same substance, the “0.5M CaCl2 % total” value (rFVIII [2]; [6]) was 48%, the “2% acetic acid % total” value (rFVIII [2]; [6]) was 23% and the “2% acetic acid dpm” value (rFVIII [2]; [6]) was 518 dpm. The “0.5M CaCl2 dpm” value (rFVIII [2]; [7]) was 1049 dpm, the beads % total (rFVIII [2]; Table 4, 14C-rFVIII 30 nM) was 29% and the beads dpm (rFVIII [2]; Table 4, 14C-rFVIII 30 nM) was 641 dpm. The “0.5M CaCl2 IU” value (rFVIII [3]; Table 8) was 54.4 IU, the “2% acetic acid % total” value (rFVIII [3]; Table 8) was 0% and the “2% acetic acid IU” value (rFVIII [3]; Table 8) was 0.0 IU. For the same substance, the “Flow through % total” value (rFVIII [3]; Table 8) was 4%, the “Total IU” value (rFVIII [3]; Table 8) was 60.4 IU and the “0.5M CaCl2 % total” value (rFVIII [3]; Table 8) was 90%. For the same substance, the “Flow through IU” value (rFVIII [3]; Table 8) was 2.5 IU and the “Activity results % total” value (rFVIII [3]) was 90%.
1 (KPNPLA) [compound 1] was tested, and the “0.5M CaCl2 ng” value (rFVIII [1]; Table 5) was 4961 ng, the “0.5M CaCl2 % total” value (rFVIII [1]; Table 5) was 88% and the “2% acetic acid % total” value (rFVIII [1]; Table 5) was 1%. The “2% acetic acid ng” value (rFVIII [1]; Table 5) was 61 ng, the “Flow through % total” value (rFVIII [1]; Table 5) was 10% and the Total ng (rFVIII [1]; Table 5) was 5651 ng. For the same substance, the Flow through ng (rFVIII [1]; Table 5) was 583 ng, the “ELISA results % total” value (rFVIII [1]) was 88% and the Total dpm (rFVIII [2]; Table 3, 14C-rFVIII 20 nM) was 3162 dpm. The “0.5M CaCl2 % total” value (rFVIII [2]; [4]) was 85%, the “2% acetic acid % total” value (rFVIII [2]; [4]) was 12% and the “2% acetic acid dpm” value (rFVIII [2]; [4]) was 368 dpm. The “0.5M CaCl2 dpm” value (rFVIII [2]; [5]) was 2694 dpm, the beads % total (rFVIII [2]; Table 3, 14C-rFVIII 20 nM) was 3% and the beads dpm (rFVIII [2]; Table 3, 14C-rFVIII 20 nM) was 99 dpm. The “0.5M CaCl2 IU” value (rFVIII [3]; Table 7) was 32.8 IU, the “2% acetic acid % total” value (rFVIII [3]; Table 7) was 2% and the “2% acetic acid IU” value (rFVIII [3]; Table 7) was 0.58 IU. For the same substance, the “Flow through % total” value (rFVIII [3]; Table 7) was 0%, the “Total IU” value (rFVIII [3]; Table 7) was 36.5 IU and the “0.5M CaCl2 % total” value (rFVIII [3]; Table 7) was 90%. The “Flow through IU” value (rFVIII [3]; Table 7) was 0.03 IU and the “Activity results % total” value (rFVIII [3]) was 90%.
